Here are results for 1 substance from patent US20230287376.

Data set [1] concerns SNAP-FCE-T7 RNAP fusion (Faustovirus / phage T7). The conditions noted are these: 5'-triphosphate; soluble fusion.
The test system of data set [2] is Faustovirus capping enzyme (FCE) (Faustovirus). The conditions noted are these: 5'-triphosphate; soluble, 37 C, 30 min, SAM, GTP.

Consider ppp25mer FAM RNA, for which the activity in data set [1] and in data set [2] was over 95 % capping in each case.
